Consider one molecule from US20260132190A1 (Eli Lilly, published 2026).

The target in test [1] is T1, human IL-34 (human, UniProt Q6ZMJ4 21-242).
T1 sequence: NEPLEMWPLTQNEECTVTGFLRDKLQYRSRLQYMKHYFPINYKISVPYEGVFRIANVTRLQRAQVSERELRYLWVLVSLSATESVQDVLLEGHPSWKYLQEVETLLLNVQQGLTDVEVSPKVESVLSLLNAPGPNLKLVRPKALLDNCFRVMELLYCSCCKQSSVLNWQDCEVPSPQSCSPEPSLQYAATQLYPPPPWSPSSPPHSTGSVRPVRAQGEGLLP
Briefly: cell-based or functional assay.

Test [2] addresses T1, human IL-34. Briefly: SPR BIAcore 8K, 37 C, antibody captured on Protein A chip, IL-34 in solution. As to the method:
(§1) Binding affinity of anti-IL-34 monoclonal antibodies of the present disclosure to human and/or cynomolgus monkey (cyno) IL-34 may be determined by methods known in the art. Briefly, the binding affinity and kinetics of the antibody are evaluated by surface plasmon resonance using BIAcore™ 8K (Cytiva) at 37° C. […] For each cycle, 200 μL IL-34 is flowed over the immobilized antibody at 100 μL/minute, and then dissociated for 20 minutes. The chip surface is regenerated with 50 μL of glycine buffer at pH 1.5 at a flow rate of 100 μL/minute. The data are fit to a 1:1 Langmiur binding mode to derive kon, koff and to calculate KD.
A general note: SPR reads the build-up and loss of mass on a sensor chip optically.

For test [3], the target named is T2, cynomolgus monkey IL-34 (cynomolgus monkey, UniProt G7Q1L3 21-242).
T2 construct: It was biotinylated in the CSF1R displacement ELISA; also called cyno IL-34
T2 sequence: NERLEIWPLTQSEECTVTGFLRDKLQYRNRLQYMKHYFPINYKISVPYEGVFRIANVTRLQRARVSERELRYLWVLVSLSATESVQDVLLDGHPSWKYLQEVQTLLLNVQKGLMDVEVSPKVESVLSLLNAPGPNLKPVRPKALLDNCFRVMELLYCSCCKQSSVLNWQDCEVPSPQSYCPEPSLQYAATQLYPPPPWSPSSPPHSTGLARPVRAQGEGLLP
The test is described as above. As to the method:
as §1

For test [4], the target named is T2, cynomolgus monkey IL-34. Description: competition ELISA, displacement of biotinylated cyno IL-34 from coated cyno CSF1R ECD-Fc. The method, then: (§2) CSF1R extracellular domain proteins (hCSF1R_Fc commercially available from R&D Cat #329-MR, cynomolgus CSF1R ECD-Fc (AAA is a linker between CSF1R extracellular domain and Fc) (SEQ ID NO: 34)) can be bound to an ELISA plate at concentrations of 30 nM in order to capture soluble biotinylated IL-34 and allowed to bind for one hour. After washing and blocking plate, biotinylated IL-34 may be added, then detected via streptavidin conjugated peroxidase. Concentrations of labeled IL-34 near the 80% binding level (EC₈₀) (3.7 nM) may be used in conjunction with a range of antibody concentrations (0-100 nM) to determine concentration of antibody required to displace IL-34 from CSF1R. After 1 hr incubation, IL-34 bound to CSF1R is detected via streptavidin conjugated peroxidase. The antibodies are assayed (n=2) and the average and standard deviation at each concentration are calculated. The potency of an antibody to displace IL-34 from CSF1R is reported as IC₅₀ (nM) with the calculated confidence interval (CI) in Table 4 and Table 5.
For orientation: ELISA stands for enzyme-linked immunosorbent assay.

The target in test [5] is T1, human IL-34. Description: competition ELISA, displacement of biotinylated human IL-34 from coated hCSF1R_Fc. As to the method:
as §2

B1: Antibody 1 (antibody, human IgG4 S228P, kappa, F234A L235A, V domains shown)
VH: EVQLLESGGGLVQPGGSLRLSCAASGFAFSSYRMSWVRQAPGKGLEWVSAISASGGKTYYADSVKGRFTISRDNSKNTLYLQMNSLRAEDTAVYYCAKRGYIWHAFDLWGRGTLVTVSS
VL: EIVLTQSPGTLSLSPGERATLSCRASQSVYSSYLAWYQQKPGQAPRLLIYGASSRATGIPDRFSGSGSGTDFTLTISRLEPEDFAVYYCQVVGSSPPFTFGGGTKVEIKR
notes: Human anti-IL-34 antibody with IgG4 PAA hinge/Fc and kappa light chain; also called Exemplified Antibody 1; exemplified antibody 1
With B1, the “IC50 (ug/ml), neutralization of human IL-34 induced luciferase reporter activity” value in test [1] is 0.0531 µg/mL. Further, in test [2], the Kd (usually the concentration at which binding is half-saturated) turned out to be 0.0312 nM; the koff (commonly the rate constant with which the complex falls apart) came out at 0.00026 s⁻¹; the kon (as a rule, a measure of how fast the partners come together) came to 8.4e+06 M⁻¹ s⁻¹. Also, in test [3], the Kd was 0.0409 nM, the koff worked out at 0.0003 s⁻¹ and the kon turned out to be 7.9e+06 M⁻¹ s⁻¹. Further, the IC50 (usually the concentration needed to halve the response being measured) in test [4] is 0.975 nM. In test [5], the IC50 is 0.0274 nM.
